Assay results published in the RNAGym collection of RNA variant scans (doi:10.1073/pnas.2313332121).

B1: TPR t1 (parent)
chain: GACCAAUCUGCCCUCAGAGCUCGAGAACAUCUUCGGAUGCAGAGGAGGCAGGCUUCGGUGGCGCGAUAGCGCCAACGUCCUCAACCUCCAAUGCAUCCCACCACAUGAUGAUGCCUGAAGAGCCUUGGUUUUUUG

Variants of: B1
Assay: polymerase ribozyme fitness, log enrichment relative to wild type (log ratio); higher = more active; in vitro selection for triplet polymerase activity
How it was run: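 Fitness is a logarithmic measure of how a genotype enriched relative to the wild type, with replicate averages weighted by inverse variance. The logarithm uses base 2, and enrichment came from Illumina sequencing of input and output libraries. Those libraries were PCR-built, transcribed mutants of each subunit of a heterodimeric triplet polymerase ribozyme, passed through one triplicate in vitro selection round that included frozen incubation at −7 °C, gel excision of extended constructs and streptavidin-bead capture. Genotypes were kept only if they had ≥10 input reads and ≥1 read per output.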

Variant | polymerase ribozyme fitness (log ratio)
U9C A68G C86A C99A | -6.98
U9C C79U | 0.385
U9C A41G G45U C82U C85G | -4.04
C8U C13U A103C C115A A119G | -2.38
C8G U9G C28G G42U G48U U55A C104U G120C | -3.54
U9A A26G A50U | -1.68
C8U C20A A26C G60C | -5.68
U9C C28G G52U | -3.99
U9C C20A A37G G47A U87G G120A G122U | -3.6
C8U C13A G44U C72A C79U C85A | -3.38
C8U C13U A43G | -1.25
U9C C13A C102U A111C | -0.646
U9C C12G C28U C73U G110C | -1.73
U9A C15A A37G C56U G65A C79G C86G C115A | -7.1
C8U C34U | -3.66
C8U C34G | -5.47
C8U U59G U96A G110U | -2.31
C8G G63C G117C C124A | -1.86
C8U C49G C123U | 1.73
C8U C64A C115U | -6.79
U9G C34G A121U | -4.18

Variant | polymerase ribozyme fitness (log ratio)
U9C C49A C86U C94A G113A | -1.52
U9C U38G G61C C101A | -3.61
C8G G69U G107U G113A | -1.04
U9G C15G U81A U109G G127C | -5.35
C8G U125A | 0.0447
U9G A37U A43U C73A C98A C124A | -7.17
C8G U78A G113U C115A G120C | -2.48
C8U G10C C13A C34A C40U C98G A103C | -3.92
U9G A29G | -1.35
U9G A43U G52U C72U C82A | -3
U9G C12A U14C G44C G63A G77A G93A | -2.85
U9G A43C | -1.01
C8U C20A C53U U54A C89G | -4.08
U9A C73U G113A | -0.0138
U9G C20U U87G | -0.825
U9G A18C C40G A91C G93C C94A A105G | -5.58
C8U C64U C101G G110A | -3.18
U9A A16U C64U C73U | 0.678
C8U G57U U78A C104A | -1.43
U9A G10A C40A C70U U78C G110U C123U | -4.89
C8U U87A U112C G117U U130C | -0.73

Variant | polymerase ribozyme fitness (log ratio)
C8U C102A | -1.17
C8U A27U | -1.79
C8U G52A A68G U81A G120U | -4.33
C8U C13A G71U C79U | -1.19
C8U C40U G60A C82A G120U | 1.65
C8U A18U C20A A95U G117A | -3.83
U9C A29U U129A | -2.08
C8U A41C A91C C123U | 0.0486
U9C G23U C31U A41G G52A C82G A83C A121C | -6.19
U9A A37C G63A | -0.704
U9G A26U | -2.33
C8U C70G U78C G113A A121G | -3.57
C8U U59G A75U U81G C124U | -2.31
U9A G23A G25C A43C G51A A68G U106A C123U | -6.69
C8U C70U C97U C124U U131A | 0.416
C8U C123A | 0.745
U9C G69C | -0.746
C8G U54G | 0.644
C8U G61A C99U | -2.24
U9A C15U A41U G60U U92C C123A | -0.568
C8U A27C G63C C79A A119G | -4.92

Variant | polymerase ribozyme fitness (log ratio)
C8U U14G G45A G69A | -2.72
U9A C22A | -4.76
C8U A24G G36A G44U C72U | -2.98
C8G G58A C70U U96A | -1.13
U9A C11A C56A A95G U106A C123U | 1.46
U9A G47U A50C | -1.68
U9A A50C | 0.19
U9C C11U U78C C82G A83U | -0.241
C8U A84C G117A | -0.216
U9A G39C C94U | -0.376
C8U G44U G52A G63C A84U C85A | -6.83
U9A C56A G77U G117U | 0.546
U9A C72G | -0.0842
U9G A26G C70G A84U U112A | -4.4
U9A G36C C101U | -0.0357
C8G G61A U87G C123A | 1.64
C8U U59G | 0.21
C8G U14C G39C A100C | -0.867
C8U A37C C53U | 0.264
U9A C15A G39U C49A C56U A121U | 0.6
